From patent US8101390B2, “Mutant-type acetyltransferase Mpr1” (National University Corporation Nara Institute of Science …, priority 2006, dated 2012)

Columns and labels:
[1] = biological target: T1, Saccharomyces cerevisiae N-acetyltransferase Mpr1 variant L117V (leucine 117 to valine), SEQ ID NO:9 (Saccharomyces cerevisiae, UniProt E9P8D2, L117V); experiment: DTNB enzymatic activity (kinetics) of purified L117V mutant-type Mpr1; type: biochemical; conditions: vs wild-type
T1 sequence (E9P8D2 1-229 L117V): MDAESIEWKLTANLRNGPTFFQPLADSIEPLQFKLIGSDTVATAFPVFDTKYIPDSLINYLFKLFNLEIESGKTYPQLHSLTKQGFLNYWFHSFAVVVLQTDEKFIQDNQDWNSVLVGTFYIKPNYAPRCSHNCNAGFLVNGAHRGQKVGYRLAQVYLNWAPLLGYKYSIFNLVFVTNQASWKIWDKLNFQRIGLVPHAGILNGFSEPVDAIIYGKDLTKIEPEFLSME
Description: (§1) JM109 was inoculated in 5 ml of M9CA (CA:0.2%) medium and was cultured at. 37° C. until OD600 of the culture reached 0.7. IPTG was added to the medium to the final concentration of 0.1 mM and cells were further cultured at 18° C. for 18 hours. After the culture, cells were ice-cooled and were collected by centrifugation (8000 rpm, 5 min). Cells were washed by the addition of Lysis buffer. After centrifugation (8000 rpm, 5 min), 5 ml of Lysis buffer was added and cells were suspended therein. The suspension was subjected to ultrasonic disintegrator and was centrifuged (15000 rpm, 10 min). The supernatant was applied onto Ni-NTA column (2 ml of QIAGEN resin suspension) equilibrated with Lysis buffer. The flow-through fraction was collected and the column was washed with 10 ml of wash buffer and then fractions were collected. Further, fractions eluted with 5 ml of elution buffer were used as the purified enzyme.
(§2) Enzymatic activities were measured for the purified wild-type Mpr1 and the purified K63R, F65L/L117V, F65L and L117V-mutant-type Mpr1s. The enzymatic activities were measured according to 5,5′-dithiobis (2-nitrobenzoic acid) (DTNB) method.

[2] = biological target: T2, Saccharomyces cerevisiae N-acetyltransferase Mpr1 variant K63R (lysine 63 to arginine), SEQ ID NO:7 (Saccharomyces cerevisiae, UniProt E9P8D2, K63R); experiment: DTNB enzymatic activity (kinetics) of purified K63R mutant-type Mpr1; type: biochemical; conditions: vs wild-type
T2 sequence (E9P8D2 1-229 K63R): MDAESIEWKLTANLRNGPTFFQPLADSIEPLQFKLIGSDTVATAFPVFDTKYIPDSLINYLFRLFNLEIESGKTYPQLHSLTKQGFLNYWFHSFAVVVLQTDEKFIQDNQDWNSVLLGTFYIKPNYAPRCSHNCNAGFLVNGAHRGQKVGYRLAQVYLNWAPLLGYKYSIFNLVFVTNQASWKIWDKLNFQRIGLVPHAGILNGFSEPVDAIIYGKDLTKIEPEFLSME
Description: as §1, §2

[3] = biological target: T3, Saccharomyces cerevisiae N-acetyltransferase Mpr1, wild-type, SEQ ID NO:1 (Saccharomyces cerevisiae, UniProt E9P8D2); experiment: DTNB enzymatic activity (kinetics) of purified wild-type Mpr1; type: biochemical; conditions: 30° C., […]-0.15 mM acetyl-CoA
T3 sequence (E9P8D2 1-229): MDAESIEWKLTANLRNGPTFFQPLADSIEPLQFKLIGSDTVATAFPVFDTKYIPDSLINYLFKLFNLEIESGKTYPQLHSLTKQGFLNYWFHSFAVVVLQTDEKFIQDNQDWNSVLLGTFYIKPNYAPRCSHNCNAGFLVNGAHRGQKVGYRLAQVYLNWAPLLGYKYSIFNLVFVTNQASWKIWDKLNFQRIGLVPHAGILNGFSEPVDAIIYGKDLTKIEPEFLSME
Description: as §1, §2

[4] = biological target: T4, Saccharomyces cerevisiae N-acetyltransferase Mpr1 variant F65L (phenylalanine 65 to leucine), SEQ ID NO:8 (Saccharomyces cerevisiae, UniProt E9P8D2, F65L); experiment: DTNB enzymatic activity (kinetics) of purified F65L mutant-type Mpr1; type: biochemical; conditions: vs wild-type
T4 sequence (E9P8D2 1-229 F65L): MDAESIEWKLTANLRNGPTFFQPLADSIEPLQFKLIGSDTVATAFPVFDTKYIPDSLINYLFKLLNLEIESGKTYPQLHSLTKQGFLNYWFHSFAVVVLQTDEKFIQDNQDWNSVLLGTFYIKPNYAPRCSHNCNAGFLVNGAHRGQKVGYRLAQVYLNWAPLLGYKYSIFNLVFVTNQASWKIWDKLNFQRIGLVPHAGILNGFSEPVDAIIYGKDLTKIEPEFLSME
Description: as §1, §2

[5] = substrate: CC(=O)SCCNC(=O)CCNC(=O)[C@H](O)C(C)(C)COP(=O)(O)OP(=O)(O)OC[C@H]1O[C@@H](n2cnc3c(N)ncnc32)[C@H](O)[C@@H]1OP(=O)(O)O; experiment: DTNB enzymatic activity (kinetics) of purified L117V mutant-type Mpr1; type: biochemical, Saccharomyces cerevisiae; conditions: other: L117V, 30° C., DTNB method, […]-0.15 mM acetyl-CoA
[6] = substrate: O=C(O)[C@@H]1CCN1; experiment: as above; type: biochemical, Saccharomyces cerevisiae; conditions: other: L117V, 30° C., DTNB method, 0.5 mM-5 mM AZC
[7] = substrate: O=C(O)[C@@H]1CCN1; experiment: DTNB enzymatic activity (kinetics) of purified wild-type Mpr1; type: biochemical, Saccharomyces cerevisiae; conditions: other: wild-type, 30° C., DTNB method, 0.5 mM-5 mM AZC
[8] = substrate: CC(=O)SCCNC(=O)CCNC(=O)[C@H](O)C(C)(C)COP(=O)(O)OP(=O)(O)OC[C@H]1O[C@@H](n2cnc3c(N)ncnc32)[C@H](O)[C@@H]1OP(=O)(O)O; experiment: DTNB enzymatic activity (kinetics) of purified F65L/L117V mutant-type Mpr1; type: biochemical, Saccharomyces cerevisiae; conditions: other: F65L/L117V, 30° C., DTNB method, […]-0.15 mM acetyl-CoA
[9] = substrate: O=C(O)[C@@H]1CCN1; experiment: as above; type: biochemical, Saccharomyces cerevisiae; conditions: other: F65L/L117V, 30° C., DTNB method, 0.5 mM-5 mM AZC
[10] = substrate: CC(=O)SCCNC(=O)CCNC(=O)[C@H](O)C(C)(C)COP(=O)(O)OP(=O)(O)OC[C@H]1O[C@@H](n2cnc3c(N)ncnc32)[C@H](O)[C@@H]1OP(=O)(O)O; experiment: DTNB enzymatic activity (kinetics) of purified K63R mutant-type Mpr1; type: biochemical, Saccharomyces cerevisiae; conditions: other: K63R, 30° C., DTNB method, […]-0.15 mM acetyl-CoA
[11] = substrate: O=C(O)[C@@H]1CCN1; experiment: as above; type: biochemical, Saccharomyces cerevisiae; conditions: other: K63R, 30° C., DTNB method, 0.5 mM-5 mM AZC
[12] = substrate: CC(=O)SCCNC(=O)CCNC(=O)[C@H](O)C(C)(C)COP(=O)(O)OP(=O)(O)OC[C@H]1O[C@@H](n2cnc3c(N)ncnc32)[C@H](O)[C@@H]1OP(=O)(O)O; experiment: DTNB enzymatic activity (kinetics) of purified F65L mutant-type Mpr1; type: biochemical, Saccharomyces cerevisiae; conditions: other: F65L, 30° C., DTNB method, […]-0.15 mM acetyl-CoA
[13] = substrate: O=C(O)[C@@H]1CCN1; experiment: as above; type: biochemical, Saccharomyces cerevisiae; conditions: other: F65L, 30° C., DTNB method, 0.5 mM-5 mM AZC

## CC(=O)SCCNC(=O)CCNC(=O)[C@H](O)C(C)(C)COP(=O)(O)OP(=O)(O)OC[C@H]1O[C@@H](n2cnc3c(N)ncnc32)[C@H](O)[C@@H]1OP(=O)(O)O [Acetyl-CoA, acetyl-CoA]
[1]
  Km value for acetyl-CoA, change in words: decreased
[2]
  Km value, change in words: decreased
[3]
  Vmax (Acetyl-CoA): 64.5 ± 1.29 U/mg
  kcat (Acetyl-CoA): 31.2 ± 0.63 s⁻¹

## O=C(O)[C@@H]1CCN1 [AZC, azetidine-2-calboxylate]
[4]
  Km value for AZC, change in words: decreased
[2]
  Km value, change in words: decreased

B1: Saccharomyces cerevisiae N-acetyltransferase Mpr1 variant L117V (leucine 117 to valine), SEQ ID NO:9 (Saccharomyces cerevisiae; L117V) (protein)
chain: MDAESIEWKLTANLRNGPTFFQPLADSIEPLQFKLIGSDTVATAFPVFDTKYIPDSLINYLFKLFNLEIESGKTYPQLHSLTKQGFLNYWFHSFAVVVLQTDEKFIQDNQDWNSVLVGTFYIKPNYAPRCSHNCNAGFLVNGAHRGQKVGYRLAQVYLNWAPLLGYKYSIFNLVFVTNQASWKIWDKLNFQRIGLVPHAGILNGFSEPVDAIIYGKDLTKIEPEFLSME
[5]
  Km: 7.63 ± 2.03 ↓ μM
  Vmax: 79.4 ± 1.54 U/mg
  kcat: 38.4 ± 0.74 s⁻¹
  kcat/Km: 5e+06 ± 1.17e+06 M⁻¹ s⁻¹
[6]
  Km: 1400 ± 130 µM
  Vmax: 98.5 ± 3.34 U/mg
  kcat: 47.6 ± 1.61 s⁻¹
  kcat/Km: 32500 ± 2580 M⁻¹ s⁻¹

B2: Saccharomyces cerevisiae N-acetyltransferase Mpr1, wild-type, SEQ ID NO:1 (Saccharomyces cerevisiae) (protein)
chain: MDAESIEWKLTANLRNGPTFFQPLADSIEPLQFKLIGSDTVATAFPVFDTKYIPDSLINYLFKLFNLEIESGKTYPQLHSLTKQGFLNYWFHSFAVVVLQTDEKFIQDNQDWNSVLLGTFYIKPNYAPRCSHNCNAGFLVNGAHRGQKVGYRLAQVYLNWAPLLGYKYSIFNLVFVTNQASWKIWDKLNFQRIGLVPHAGILNGFSEPVDAIIYGKDLTKIEPEFLSME
[7]
  Km: 1600 ± 90 µM
  Vmax: 74.76 ± 1.27 U/mg
  kcat: 36.1 ± 1.53 s⁻¹
  kcat/Km: 22400 M⁻¹ s⁻¹

B3: Saccharomyces cerevisiae N-acetyltransferase Mpr1 variant F65L/L117V, SEQ ID NO:10 (Saccharomyces cerevisiae; F65L/L117V) (protein)
chain: MDAESIEWKLTANLRNGPTFFQPLADSIEPLQFKLIGSDTVATAFPVFDTKYIPDSLINYLFKLLNLEIESGKTYPQLHSLTKQGFLNYWFHSFAVVVLQTDEKFIQDNQDWNSVLVGTFYIKPNYAPRCSHNCNAGFLVNGAHRGQKVGYRLAQVYLNWAPLLGYKYSIFNLVFVTNQASWKIWDKLNFQRIGLVPHAGILNGFSEPVDAIIYGKDLTKIEPEFLSME
[8]
  Km: 13.3 ± 1.67 µM
  Vmax: 64.9 ± 0.36 U/mg
  kcat: 31.4 ± 0.17 s⁻¹
  kcat/Km: 2.3e+06 M⁻¹ s⁻¹
[9]
  Km: 1800 ± 190 µM
  Vmax: 79.4 ± 1.05 U/mg
  kcat: 38.4 ± 2.18 s⁻¹
  kcat/Km: 21300 M⁻¹ s⁻¹

B4: Saccharomyces cerevisiae N-acetyltransferase Mpr1 variant K63R (lysine 63 to arginine), SEQ ID NO:7 (Saccharomyces cerevisiae; K63R) (protein)
chain: MDAESIEWKLTANLRNGPTFFQPLADSIEPLQFKLIGSDTVATAFPVFDTKYIPDSLINYLFRLFNLEIESGKTYPQLHSLTKQGFLNYWFHSFAVVVLQTDEKFIQDNQDWNSVLLGTFYIKPNYAPRCSHNCNAGFLVNGAHRGQKVGYRLAQVYLNWAPLLGYKYSIFNLVFVTNQASWKIWDKLNFQRIGLVPHAGILNGFSEPVDAIIYGKDLTKIEPEFLSME
[10]
  Km: 8.0 ± 2.84 ↓ μM
  Vmax: 62.4 ± 1.94 U/mg
  kcat: 26.5 ± 0.94 s⁻¹
  kcat/Km: 3.3e+06 ± 1.09e+06 M⁻¹ s⁻¹
[11]
  Km: 1.2 ± 0.17 ↓ mM
  Vmax: 72 ± 2.98 U/mg
  kcat: 30.6 ± 1.44 s⁻¹
  kcat/Km: 24800 M⁻¹ s⁻¹

B5: Saccharomyces cerevisiae N-acetyltransferase Mpr1 variant F65L (phenylalanine 65 to leucine), SEQ ID NO:8 (Saccharomyces cerevisiae; F65L) (protein)
chain: MDAESIEWKLTANLRNGPTFFQPLADSIEPLQFKLIGSDTVATAFPVFDTKYIPDSLINYLFKLLNLEIESGKTYPQLHSLTKQGFLNYWFHSFAVVVLQTDEKFIQDNQDWNSVLLGTFYIKPNYAPRCSHNCNAGFLVNGAHRGQKVGYRLAQVYLNWAPLLGYKYSIFNLVFVTNQASWKIWDKLNFQRIGLVPHAGILNGFSEPVDAIIYGKDLTKIEPEFLSME
[12]
  Km: 10.3 ± 1.46 µM
  Vmax: 63.7 ± 3.34 U/mg
  kcat: 30.8 ± 0.61 s⁻¹
  kcat/Km: 2.9e+06 M⁻¹ s⁻¹
[13]
  Km: 0.7 ± 0.15 ↓ mM
  Vmax: 65.0 ± 2.74 U/mg
  kcat: 31.4 ± 1.33 s⁻¹
  kcat/Km: 45500 ± 8630 M⁻¹ s⁻¹
